According to patent US20260234269A1:

Columns and labels:
[1] = biological target: Human Galectin-3 protein (Acro Biosystems, GA3-H5129) (human) (UniProt P17931); test: ELISA, hGal3 coated, antibody 3 ug/mL, competitor hTIM3
[2] = biological target: Human Galectin-3 protein (Acro Biosystems, GA3-H5129) (human) (UniProt P17931); test: SPR Biacore T200, antibody captured, Galectin-3 analyte
[3] = biological target: Human Galectin-3 protein (Acro Biosystems, GA3-H5129) (human) (UniProt P17931); test: ELISA, hGal3 coated, competitor hTIM3 (FIG. 24)

Human Galectin-3 protein (Acro Biosystems, GA3-H5129) (human), sequence (P17931 2-250): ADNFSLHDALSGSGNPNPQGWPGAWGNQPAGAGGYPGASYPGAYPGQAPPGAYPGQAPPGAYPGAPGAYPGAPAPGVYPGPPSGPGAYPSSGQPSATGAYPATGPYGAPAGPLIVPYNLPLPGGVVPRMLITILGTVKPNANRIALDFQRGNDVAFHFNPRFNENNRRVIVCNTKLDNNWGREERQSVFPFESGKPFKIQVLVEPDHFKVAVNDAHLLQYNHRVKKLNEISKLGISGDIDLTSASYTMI

B1: 9H2.2H1 (antibody, from a related filing, V domains shown)
VH: QVQLQQPGAELVGPGSSVKLSCKASGYTFTNYWIHWVKQRPLQGLEWIGNIDPSDSETHYNQKFKDKATLTVDKSSSTAYMQLSSLTSEDSAVYYCARHGYYDYWGQGTTLTVSS
VL: DIVMTQSHKFMSTSVGDRVSITCKASQDVSTAVAWYQQKPGQSPKLLIYWASTRHTGVPDRFTGSGSGTDYTLTISSVQAEDLALYYCQQHYTTPLTFGAGTKLELKR
- GAL3-TIM3 Blocking @ 3 ug/mL [1]: 6%
- Kd [2]: 18.4 nM
- reduction of TIM3-GAL3 binding [3]: < 25%
